Assays:
[1] = biological target: LHCGR A57T mutant (human) (UniProt P22888)
[2] = biological target: LHCGR E270V mutant (human) (UniProt P22888)
[3] = biological target: LHCGR I83S mutant (human) (UniProt P22888)
[4] = biological target: LHCGR K225S + T226I mutant (human) (UniProt P22888)
[5] = biological target: LHCGR N35D + V37A mutant (human) (UniProt P22888)
[6] = biological target: LHCGR R247T mutant (human) (UniProt P22888)
[7] = biological target: LHCGR S149F mutant (human) (UniProt P22888)
[8] = biological target: LHCGR T48R mutant (human) (UniProt P22888)
[9] = biological target: human luteinizing hormone (LH)/chorionic gonadotropin (hCG) receptor (LHCGR), wild type (human) (UniProt P22888)
[10] = biological target: LHCGR A57T mutant (human) (UniProt P22888); remark: listed apart in the source
[11] = biological target: LHCGR E270V mutant (human) (UniProt P22888); remark: listed apart in the source
[12] = biological target: LHCGR I83S mutant (human) (UniProt P22888); remark: listed apart in the source
[13] = biological target: LHCGR K225S + T226I mutant (human) (UniProt P22888); remark: listed apart in the source
[14] = biological target: LHCGR N35D + V37A mutant (human) (UniProt P22888); remark: listed apart in the source
[15] = biological target: LHCGR R247T mutant (human) (UniProt P22888); remark: listed apart in the source
[16] = biological target: LHCGR S149F mutant (human) (UniProt P22888); remark: listed apart in the source
[17] = biological target: LHCGR T48R mutant (human) (UniProt P22888); remark: listed apart in the source
[18] = biological target: human luteinizing hormone (LH)/chorionic gonadotropin (hCG) receptor (LHCGR), wild type (human) (UniProt P22888); remark: listed apart in the source

recombinant human chorionic gonadotropin (hCG) (from UniProt P01215 25-116; P0DN86 21-165) (ligand)
hCG EC50 (pM) of cAMP increase, BRET (CAMYEL biosensor) in transfected HEK293 cells, 1 pM–100 nM hCG, 30 min [1]: 153 pM
hCG EC50 (pM) of cAMP increase, BRET (CAMYEL biosensor) in transfected HEK293 cells, 1 pM–100 nM hCG, 30 min [2]: 248 pM
hCG EC50 (pM) of cAMP increase, BRET (CAMYEL biosensor) in transfected HEK293 cells, 1 pM–100 nM hCG, 30 min [3]: 127 pM
hCG EC50 (pM) of cAMP increase, BRET (CAMYEL biosensor) in transfected HEK293 cells, 1 pM–100 nM hCG, 30 min [4]: 194 pM
hCG EC50 (pM) of cAMP increase, BRET (CAMYEL biosensor) in transfected HEK293 cells, 1 pM–100 nM hCG, 30 min [5]: 94.5 pM
hCG EC50 (pM) of cAMP increase, BRET (CAMYEL biosensor) in transfected HEK293 cells, 1 pM–100 nM hCG, 30 min [6]: 386 pM
hCG EC50 (pM) of cAMP increase, BRET (CAMYEL biosensor) in transfected HEK293 cells, 1 pM–100 nM hCG, 30 min [7]: 111 pM
hCG EC50 (pM) of cAMP increase, BRET (CAMYEL biosensor) in transfected HEK293 cells, 1 pM–100 nM hCG, 30 min [8]: 130 pM
hCG EC50 (pM) of cAMP increase, BRET (CAMYEL biosensor) in transfected HEK293 cells, 1 pM–100 nM hCG, 30 min [9]: 143 pM
hCG AUC of the pERK1/2 activation kinetics, BRET (REV biosensor) in transfected HEK293 cells, 100 pM hCG (relative units) [10]: 20.5
hCG AUC of the pERK1/2 activation kinetics, BRET (REV biosensor) in transfected HEK293 cells, 100 pM hCG (relative units) [11]: 7.18
hCG AUC of the pERK1/2 activation kinetics, BRET (REV biosensor) in transfected HEK293 cells, 100 pM hCG (relative units) [12]: 6.65
hCG AUC of the pERK1/2 activation kinetics, BRET (REV biosensor) in transfected HEK293 cells, 100 pM hCG (relative units) [13]: 9.47
hCG AUC of the pERK1/2 activation kinetics, BRET (REV biosensor) in transfected HEK293 cells, 100 pM hCG (relative units) [14]: 8.19
hCG AUC of the pERK1/2 activation kinetics, BRET (REV biosensor) in transfected HEK293 cells, 100 pM hCG (relative units) [15]: 15.4
hCG AUC of the pERK1/2 activation kinetics, BRET (REV biosensor) in transfected HEK293 cells, 100 pM hCG (relative units) [16]: 13.9
hCG AUC of the pERK1/2 activation kinetics, BRET (REV biosensor) in transfected HEK293 cells, 100 pM hCG (relative units) [17]: 13.4
hCG AUC of the pERK1/2 activation kinetics, BRET (REV biosensor) in transfected HEK293 cells, 100 pM hCG (relative units) [18]: 7.98

recombinant human luteinizing hormone (LH) (from UniProt P01215 25-116; P01229 21-141) (ligand)
LH EC50 (pM) of cAMP increase, BRET (CAMYEL biosensor) in transfected HEK293 cells, 1 pM–100 nM LH, 30 min [1]: 703 pM
LH EC50 (pM) of cAMP increase, BRET (CAMYEL biosensor) in transfected HEK293 cells, 1 pM–100 nM LH, 30 min [2]: 2810 pM
LH EC50 (pM) of cAMP increase, BRET (CAMYEL biosensor) in transfected HEK293 cells, 1 pM–100 nM LH, 30 min [3]: 712 pM
LH EC50 (pM) of cAMP increase, BRET (CAMYEL biosensor) in transfected HEK293 cells, 1 pM–100 nM LH, 30 min [4]: 698 pM
LH EC50 (pM) of cAMP increase, BRET (CAMYEL biosensor) in transfected HEK293 cells, 1 pM–100 nM LH, 30 min [5]: 595 pM
LH EC50 (pM) of cAMP increase, BRET (CAMYEL biosensor) in transfected HEK293 cells, 1 pM–100 nM LH, 30 min [6]: 556 pM
LH EC50 (pM) of cAMP increase, BRET (CAMYEL biosensor) in transfected HEK293 cells, 1 pM–100 nM LH, 30 min [7]: 756 pM
LH EC50 (pM) of cAMP increase, BRET (CAMYEL biosensor) in transfected HEK293 cells, 1 pM–100 nM LH, 30 min [8]: 1210 pM
LH EC50 (pM) of cAMP increase, BRET (CAMYEL biosensor) in transfected HEK293 cells, 1 pM–100 nM LH, 30 min [9]: 1110 pM
LH AUC of the pERK1/2 activation kinetics, BRET (REV biosensor) in transfected HEK293 cells, 100 pM LH (relative units) [10]: 10.9
LH AUC of the pERK1/2 activation kinetics, BRET (REV biosensor) in transfected HEK293 cells, 100 pM LH (relative units) [11]: 10.9
LH AUC of the pERK1/2 activation kinetics, BRET (REV biosensor) in transfected HEK293 cells, 100 pM LH (relative units) [12]: 8.03
LH AUC of the pERK1/2 activation kinetics, BRET (REV biosensor) in transfected HEK293 cells, 100 pM LH (relative units) [13]: 11.4
LH AUC of the pERK1/2 activation kinetics, BRET (REV biosensor) in transfected HEK293 cells, 100 pM LH (relative units) [14]: 5.48
LH AUC of the pERK1/2 activation kinetics, BRET (REV biosensor) in transfected HEK293 cells, 100 pM LH (relative units) [15]: 10.5
LH AUC of the pERK1/2 activation kinetics, BRET (REV biosensor) in transfected HEK293 cells, 100 pM LH (relative units) [16]: 10.4
LH AUC of the pERK1/2 activation kinetics, BRET (REV biosensor) in transfected HEK293 cells, 100 pM LH (relative units) [17]: 12.3
LH AUC of the pERK1/2 activation kinetics, BRET (REV biosensor) in transfected HEK293 cells, 100 pM LH (relative units) [18]: 13.9

— article PMC7794846
